Results: patent US20170260508A1

Molecular target: chimeric LILRB2-PILRβ receptor (aa 24-458 of hLILRB2) on mouse T cell hybridoma NFAT-GFP reporter cells (human) (UniProt Q8N423)
Assay: cell-based or functional assay

chimeric LILRB2-PILRβ receptor (aa 24-458 of hLILRB2) on mouse T cell hybridoma NFAT-GFP reporter cells (human), sequence (Q8N423 other isoform, or with tags, fused parts or gaps mutant limits assumed, form in doubt): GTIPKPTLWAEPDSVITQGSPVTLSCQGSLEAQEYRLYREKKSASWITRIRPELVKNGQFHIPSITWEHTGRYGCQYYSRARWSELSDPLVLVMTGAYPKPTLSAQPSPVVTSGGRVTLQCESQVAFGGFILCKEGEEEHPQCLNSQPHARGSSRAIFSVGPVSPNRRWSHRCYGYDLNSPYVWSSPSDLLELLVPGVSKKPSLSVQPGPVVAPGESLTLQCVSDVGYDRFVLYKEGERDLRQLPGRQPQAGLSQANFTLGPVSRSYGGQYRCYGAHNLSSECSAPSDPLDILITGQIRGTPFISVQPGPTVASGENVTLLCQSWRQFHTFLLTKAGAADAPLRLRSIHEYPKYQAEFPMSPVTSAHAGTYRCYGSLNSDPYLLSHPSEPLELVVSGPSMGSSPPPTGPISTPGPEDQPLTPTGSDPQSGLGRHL

## GST-human Angptl2, bacterially expressed (GST-Angptl2-FLAG) (from UniProt Q9UKU9 23-493) (ligand)
  GFP expression of LILRB2 reporter cells, immobilized monomeric GST-Angptl2: 20%
  GFP expression of LILRB2 reporter cells, soluble monomeric GST-Angptl2: 3.56%
  GFP induction of LILRB2 reporter cells by immobilized Angptl2, no antibody: 19.9%
